Experimental findings from article PMC5622320 (Nucleic Acids Research, 2017) are described below.

This experiment concerns the target T1, stFlhD4C2 (Salmonella typhimurium, UniProt P0A2R2;O52222).
T1 sequence 1: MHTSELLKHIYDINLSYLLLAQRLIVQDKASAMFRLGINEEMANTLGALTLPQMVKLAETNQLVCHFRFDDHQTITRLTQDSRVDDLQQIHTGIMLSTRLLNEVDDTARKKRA
T1 sequence 2: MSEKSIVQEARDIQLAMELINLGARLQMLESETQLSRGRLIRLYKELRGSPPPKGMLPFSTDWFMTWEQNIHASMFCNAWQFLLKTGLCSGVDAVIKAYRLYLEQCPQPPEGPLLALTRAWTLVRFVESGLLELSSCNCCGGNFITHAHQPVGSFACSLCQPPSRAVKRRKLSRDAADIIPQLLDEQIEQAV
As to the kind of experiment: native gel or EMSA. In general terms: In EMSA bound probe runs differently from free probe, usually more slowly.

B1: YdiV (natural protein)
chain: MKIFLENLYHSDCYFLPIRDNQQVLVGVELITHFSSEDGTVRIPTSRVIAQLTEEQHWQLFSEQLELLKSCQHFFIQHKLFAWLNLTPQVATLLLERDNYAGELLKYPFIELLINENYPHLNEGKDNRGLLSLSQVYPLVLGNLGAGNSTMKAVFDGLFTRVMLDKSFIQQQITHRSFEPFIRAIQAQISPCCNCIIAGGIDTAEILAQITPFDFHALQGCLWPAVPINQITTLVQR
Turning to B1, the binding result is recorded as “binds”.
